Test results: US20140162285A1, “Methods of Modulating Vesicular Trafficking” (The General Hospital Corporation, priority 2009, published 2014)
Entries after “also recorded” stand apart in the source; their conditions may differ. Square brackets hold non-standard residues; d marks the D form. Ends that are not written are not given here. pS = N[C@@H](COP(=O)(O)O)C(=O)O

T1: 6His-a2N(wt) (Mus musculus, UniProt P15920)
T1 construct: amino acid residues 1-402 of mouse V-ATPase a2-subunit (a2N1-402); made in house; host or cells: cell-free in vitro translation
T1 sequence (P15920 1-402): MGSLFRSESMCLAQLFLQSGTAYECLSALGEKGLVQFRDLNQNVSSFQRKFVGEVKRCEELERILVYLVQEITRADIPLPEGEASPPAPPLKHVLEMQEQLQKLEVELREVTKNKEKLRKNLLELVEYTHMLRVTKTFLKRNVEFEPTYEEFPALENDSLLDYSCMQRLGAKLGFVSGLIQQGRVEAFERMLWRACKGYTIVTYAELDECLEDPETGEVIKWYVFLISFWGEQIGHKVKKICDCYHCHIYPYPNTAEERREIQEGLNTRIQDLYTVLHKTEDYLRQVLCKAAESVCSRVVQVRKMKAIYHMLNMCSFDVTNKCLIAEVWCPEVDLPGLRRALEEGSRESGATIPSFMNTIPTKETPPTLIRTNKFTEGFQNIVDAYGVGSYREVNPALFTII

T2: GST-ARNO(wt) (Homo sapiens, UniProt Q99418)
T2 construct: i) 1-400aa, full length ARNO(wt); made in house; host or cells: E. coli BL21(DE3)
T2 sequence (Q99418 1-400): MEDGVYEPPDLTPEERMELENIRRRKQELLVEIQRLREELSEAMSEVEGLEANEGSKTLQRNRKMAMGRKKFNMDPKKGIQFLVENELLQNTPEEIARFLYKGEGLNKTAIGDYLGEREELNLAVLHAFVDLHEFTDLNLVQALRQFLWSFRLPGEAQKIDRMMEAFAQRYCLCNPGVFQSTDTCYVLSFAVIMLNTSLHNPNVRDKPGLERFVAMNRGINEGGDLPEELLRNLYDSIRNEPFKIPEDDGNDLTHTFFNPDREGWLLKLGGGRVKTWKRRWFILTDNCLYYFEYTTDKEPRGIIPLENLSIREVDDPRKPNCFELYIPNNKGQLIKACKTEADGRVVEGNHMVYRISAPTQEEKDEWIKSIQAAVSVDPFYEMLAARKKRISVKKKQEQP

B1: a2N-C: C-terminal part of a2N, amino acid residues 134-393 of the mouse V-ATPase a2-subunit, in vitro translated (protein)
chain: MSGSHHHHHHSSGIEGRGRLIKMTVTKTFLKRNVEFEPTYEEFPALENDSLLDYSCMQRLGAKLGFVSGLIQQGRVEAFERMLWRACKGYTIVTYAELDECLEDPETGEVIKWYVFLISFWGEQIGHKVKKICDCYHCHIYPYPNTAEERREIQEGLNTRIQDLYTVLHKTEDYLRQVLCKAAESVCSRVVQVRKMKAIYHMLNMCSFDVTNKCLIAEVWCPEVDLPGLRRALEEGSRESGATIPSFMNTIPTKETPPTLIRTNKFTEGFQNIVDAYGVGSYRE
B2: a2N-N: N-terminal part of a2N, amino acid residues 1-133 of the mouse V-ATPase a2-subunit, in vitro translated (protein)
chain: MSGSHHHHHHSSGIEGRGRLIKMTMGSLFRSESMCLAQLFLQSGTAYECLSALGEKGLVQFRDLNQNVSSFQRKFVGEVKRCEELERILVYLVQEITRADIPLPEGEASPPAPPLKHVLEMQEQLQKLEVELREVTKNKEKLRKNLLELVEYTHMLR

How the values were obtained:
6His-a2N(wt) = target: T1, 6His-a2N(wt); experiment: ARNO-derived peptide pull-down with in vitro translated 6His-a2N(wt); assay type: binding; conditions: 7 nmol biotin-tagged peptide on streptavidin-agarose beads
Protocol: FIGS. 4B-C are images of Western blots showing (4B) the results of peptide pull-down assays for interaction of a2N with Sec7-PH-linker of ARNO and (4C) phosphorylation-dependent interaction of a2N with ARNO-derived peptide corresponding to the PB-domain of ARNO. Corresponding ARNO-derived peptides were immobilized on streptavidin-beads and incubated with in vitro translated recombinant a2N. Interacting complexes were eluted and analyzed by Western blotting using anti-a2N antibodies.
ARNO-derived peptides, equal amounts (7 nmol) of biotin-tagged synthetic peptides were also immobilized on streptavidin-agarose beads followed by incubation with 10 μl of in vitro translated 6His-a2N(wt) recombinant protein. Pull-down experiments and SDS-PAGE analysis were performed as described above and interacting 6His-a2N/ARNO-derived-peptide complexes were analyzed by Western blotting using polyclonal anti-a2N antibody. All experiments were repeated at least three times with similar results.

GST-ARNO(wt) = target: T2, GST-ARNO(wt); experiment: recombinant protein pull-down of in vitro translated a2N-N / a2N-C with GST-ARNO(wt); assay type: binding; conditions: 35S-labeled in vitro translated protein, autoradiography
From the text: FIG. 2C is an image of a Western blot showing that both the amino terminus (a2N-N) and carboxyl terminus (a2N-C) of the cytosolic tail of the a2-subunit interact with ARNO(wt). Left panel, a pull-down (PD) of in vitro translated metabolically labeled a2N-N (a2N1-133) with recombinant GST-only and GST-ARNO(wt) used as a baits. […] Right panel, a pull-down (PD) of in vitro translated metabolically labeled a2N-C (a2N134-393) with recombinant GST-only and GST-ARNO(wt) used as a baits.
The purified recombinant GST-ARNO(wt) and GST-tagged ARNO domain constructs ([…]) were incubated with 10 μl of in vitro translated 6His-a2N recombinant protein at 4° C. for 2 hours in 500 μl of binding buffer (10 mM HEPES, 1 mM EDTA, 1 mM DTT, 100 mM NaCl, 10% glycerol, 0.1% NP-40) with gentle rotation. Then the interacting recombinant proteins were immobilized on glutathione beads by incubation with 50 μl of 50% glutathione Sepharose 4B slurry for 2 hours at 4° C. The beads were collected by centrifugation and washed 5 times with 500 μl ice-cold binding buffer. Interacting proteins were eluted by boiling in SDS-PAGE sample buffer for 10 min at 95° C., resolved by SDS-PAGE and analyzed by Western blotting using polyclonal anti-a2N antibodies. […]

Molecule	interaction of ARNO-derived peptide with a2N (6His-a2N(wt))	interaction with GST-ARNO(wt) in pull-down (GST-ARNO(wt))
ARNO375-440^P: phosphorylated version (Ser392) of the ARNO PB-domain peptide, SEQ ID NO:33 (VSVDPFYEMLAARKKRI[pS]VKKKQEQP)	completely abolished	–
B1	–	could interact; also recorded: direct interaction
B2	–	could interact; also recorded: direct interaction
